Measurements published in patent publication US20140120557A1 (published 2014).

Molecular target: T1, 5C.C7 TCR (as measured by surface plasmon resonance) (mouse)
T1 construct: Kept apart from the TCR on cells because the SPR construct is not described
Assay: SPR

B1: MCC-I-Ek (peptide-MHC)
chain 1: ANERADLIAYLKQATK
chain 2: IKEEHTIIQAEFYLLPDKRGEFMFDFDGDEIFHVDIEKSETIWRLEEFAKFASFEAQGALANIAVDKANLDVMKERSNNTPDANVAPEVTVLSRSPVNLGEPNILICFIDKFSPPVVNVTWLRNGRPVTEGVSETVFLPRDDHLFRKFHYLTFLPSTDDFYDCEVDHWGLEEPLRKHWEFEEKTLLPETKE
chain 3: VRDSRPWFLEYCKSECHFYNGTQRVRLLVRYFYNLEENLRFDSDVGEFRAVTELGRPDAENWNSQPEFLEQKRAEVDTVCRHNYEIFDNFLVPRRVEPTVTVYPTKTQPLEHHNLLVCSVSDFYPGNIEVRWFRNGKEEKTGIVSTGLVRNGDWTFQTLVMLETVPQSGEVYTCQVEHPSLTDPVTVEWKAQSTSAQNK
Kd: 22.9 µM | t1/2: 5.77 s
